The target of series [1] is 4-aminobutyrate aminotransferase, mitochondrial (Sus scrofa) (UniProt P80147).
Description: (§1) Compound was tested for the inhibition of Gamma-amino-N-butyrate transaminase (GABA-AT)
Series [2] relates to N[C@@H]1C=C[C@H](C(=O)O)C1.
Description: as §1
Series [3] has as its system N[C@@H]1C=C[C@@H](C(=O)O)C1.
Series [4] relates to N[C@H]1C=C[C@@H](C(=O)O)C1.

Sequence of 4-aminobutyrate aminotransferase, mitochondrial (Sus scrofa) (P80147 whole entry): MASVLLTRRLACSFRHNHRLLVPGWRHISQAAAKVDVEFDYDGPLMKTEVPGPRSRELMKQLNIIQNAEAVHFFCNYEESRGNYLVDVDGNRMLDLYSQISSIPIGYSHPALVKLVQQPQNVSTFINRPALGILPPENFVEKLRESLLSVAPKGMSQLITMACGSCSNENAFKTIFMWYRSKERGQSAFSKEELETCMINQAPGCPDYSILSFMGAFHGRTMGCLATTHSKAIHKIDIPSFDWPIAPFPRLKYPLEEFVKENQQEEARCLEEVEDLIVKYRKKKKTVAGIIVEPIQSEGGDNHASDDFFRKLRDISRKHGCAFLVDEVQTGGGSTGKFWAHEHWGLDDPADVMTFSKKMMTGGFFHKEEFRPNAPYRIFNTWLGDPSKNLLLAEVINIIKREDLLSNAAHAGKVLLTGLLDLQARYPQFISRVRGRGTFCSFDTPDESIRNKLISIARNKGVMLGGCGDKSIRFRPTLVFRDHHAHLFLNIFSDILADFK
Sequence of 4-aminobutyrate aminotransferase, mitochondrial (Sus scrofa), P80147 (P80147 whole entry): as above
Description for NC1C=CC(C(=O)O)C1: as §1
Description for N[C@@H]1CC=C(C(=O)O)C1: as §1

`N[C@@H]1C=C[C@H](C(=O)O)C1` gave a k cat in series [1] of 11.7 min⁻¹.

Regarding “4-aminobutyrate aminotransferase, mitochondrial (Sus scrofa), P80147”, the Km in the series on NC1C=CC(C(=O)O)C1 was 2300 µM; in series [2], 100 µM; with N[C@@H]1CC=C(C(=O)O)C1, 1600 µM; in series [3] it was “No turn over”; in series [4] it was “No turn over”; in the series with N[C@H]1CC=C(C(=O)O)C1, “No turn over”.

In series [1], `N[C@@H]1CC=C(C(=O)O)C1` yielded a k cat of 37.5 min⁻¹.

For the molecule `NC1C=CC(C(=O)O)C1` (racemic), the k cat in series [1] turned out to be 40 min⁻¹.

The term Km denotes the concentration of substrate that gives half-maximal velocity.

Source of the values: ChEMBL document CHEMBL1132473.
